Data as given in patent publication US20170051047A1.

Key:
[1] = target: Clostridium difficile toxin A (whole toxin A) (Clostridium difficile) (UniProt P16154)
[2] = target: Clostridium difficile toxin A (whole toxin A) (Clostridium difficile) (UniProt P16154); experiment: cell-based or functional assay

CDA1 (Merck anti-toxin A mAb used as a control) (antibody)
Kd [1]: 0.624 nM
koff [1]: 0.000291 s⁻¹
kon [1]: 480000 M⁻¹ s⁻¹
IC50, in vitro toxin A neutralization on Vero cells [2]: 0.347 µg/mL
